The values that follow come from PMC10960309.

Assay in all cases: purified protein
Conditions in all cases: 50 mM sodium borate pH 9.5, 37°C, 1.9 mM OPA, 1 mM DTT, 5% DMSO

Substrate in series [1]: CCCCCCCC(=O)N[C@H]1CCOC1=O
Substrate in series [2]: CCCCCCCCCCCC(=O)N[C@H]1CCOC1=O
Substrate in series [3]: CCCCCCCCCC(=O)N[C@H]1CCOC1=O
Substrate in series [4]: CCCCCCCCCC(=O)CC(=O)N[C@H]1CCOC1=O

B1: PvdQ (Pseudomonas aeruginosa PAO1) (protein)
chain 1: DMPRPTGLAADIRWTAYGVPHIRAKDERGLGYGIGYAYARDNACLLAEEIVTARGERARYFGSEGKSSAELDNLPSDIFYAWLNQPEALQAFWQAQTPAVRQLLEGYAAGFNRFLREADGKTTSCLGQPWLRAIATDDLLRLTRRLLVEGGVGQFADALVAAAPPGAEKV
chain 2: SNAIAVGSERSADGKGMLLANPHFPWNGAMRFYQMHLTIPGRLDVMGASLPGLPVVNIGFSRHLAWTHTVDTSSHFTLYRLALDPKDPRRYLVDGRSLPLEEKSVAIEVRGADGKLSRVEHKVYQSIYGPLVVWPGKLDWNRSEAYALRDANLENTRVLQQWYSINQASDVADLRRRVEALQGIPWVNTLAADEQGNALYMNQSVVPYLKPELIPACAIPQLVAEGLPALQGQDSRCAWSRDPAAAQAGITPAAQLPVLLRRDFVQNSNDSAWLTNPASPLQGFSPLVSQEKPIGPRARYALSRLQGKQPLEAKTLEEMVTANHVFSADQVLPDLLRLCRDNQGEKSLARACAALAQWDRGANLDSGSGFVYFQRFMQRFAELDGAWKEPFDAQRPLDTPQGIALDRPQVATQVRQALADAAAEVEKSGIPDGARWGDLQVSTRGQERIAIPGGDGHFGVYNAIQSVRKGDHLEVVGGTSYIQLVTFPEEGPKARGLLAFSQSSDPRSPHYRDQTELFSRQQWQTLPFSDRQIDADPQLQRLSIRE
As usually defined, the Km is the concentration of substrate that gives half-maximal velocity. For orientation: kcat means the number of substrate molecules converted per active site and unit of time at saturation. The term kcat/Km denotes the second-order rate constant that governs catalysis at low substrate concentration. For the protein B1, the Km entry in “purified protein [1]” was “(1.18 ± 0.34) × 10^2 μM”; in the series “purified protein [2]”, 98.1 ± 34.1 µM; in “purified protein [3]”, “(1.13 ± 0.42) × 10^2 μM”; in the series “purified protein [4]”, “(2.35 ± 0.07) × 10^2 μM”. In addition, the kcat in “purified protein [4]” was 5.23 ± 0.55 s⁻¹. Further, the kcat/Km in the series “purified protein [4]” was found to be 22200 ± 4000 M⁻¹ s⁻¹.
